From patent US20170088605A1 (Novartis, published 2017)
Substitutions are numbered along the chain they refer to. Like-named read-outs stand apart in the source and are kept apart here.

Tests used:
Experiment in all cases: cell-based or functional assay
[1] = target: T1, BKV serotype I infectious virus (VP1) (BK virus serotype I, UniProt P03088 1-362)
T1 sequence (looked up): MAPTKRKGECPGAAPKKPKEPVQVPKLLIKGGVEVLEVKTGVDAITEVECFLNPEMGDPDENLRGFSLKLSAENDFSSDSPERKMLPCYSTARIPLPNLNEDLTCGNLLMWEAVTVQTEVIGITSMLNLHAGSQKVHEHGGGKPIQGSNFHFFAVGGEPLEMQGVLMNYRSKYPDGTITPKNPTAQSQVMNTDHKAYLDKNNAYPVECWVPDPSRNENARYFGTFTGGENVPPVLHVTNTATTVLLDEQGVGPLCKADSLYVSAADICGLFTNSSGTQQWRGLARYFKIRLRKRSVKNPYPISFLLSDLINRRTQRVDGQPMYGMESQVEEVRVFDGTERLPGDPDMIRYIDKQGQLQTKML

[2] = target: T2, BKV serotype IV chimeric infectious virus (VP1 of strain ITA-4) (BK virus serotype IV)
[3] = target: T3, BKV serotype III chimeric infectious virus (VP1 of isolate AS) (BK virus serotype III)
[4] = target: T1, BKV serotype I infectious virus (VP1); remark: listed apart in the source
[5] = target: T4, BKV serotype II chimeric infectious virus (VP1 of isolate SB) (BK virus serotype II)
[6] = target: T2, BKV serotype IV chimeric infectious …; remark: listed apart in the source
[7] = target: T3, BKV serotype III chimeric infectious …; remark: listed apart in the source
[8] = target: JCV infectious virus, isolates Mad-1 and Mad-4 (VP1) (JC virus)
[9] = target: T1, BKV serotype I infectious virus (VP1); remark: listed apart in the source
[10] = target: T4, BKV serotype II chimeric infectious …; remark: listed apart in the source

B1: 2075-16-1 (antibody, V domains shown)
VH: QVQLQQPGSELVRPGASVKLSCKASGYTFTNYWMHWVKQGHGQGLEWIGNIYPGSGNTNYGENFKSKGTLTVDTSSSTAYMHLSRLTSEDSAVYYCSRSAIYYGYDGHYFAMDYWGQGTSVTVSS
VL: DIQMTQSPSSLSASLGGKVTITCKASQDIRKYIAWYQHKPGKGPRLLINYTSTLQSGIPSRFRGSGSGRDYSFSISNLEPEDIATYYCLQYDNILFTFGTGTKLEIK
[1]
  neutralization EC50: 0.065 µg/mL
  neutralization EC90: 1.25 µg/mL

B2: EBB-C1975-A3 (antibody, V domains shown)
VH: EVQLVETGGGLVQPGGSLRLSCAASGFTVRRNYMSWVRQAPGKGLEWVSGIYSGGSTYYADSVKGRFTISRDYSKNTLSLQMNTLRVEDTAVYFCAREDEFWSGYSAGVDWGQGTLVTVSS
VL: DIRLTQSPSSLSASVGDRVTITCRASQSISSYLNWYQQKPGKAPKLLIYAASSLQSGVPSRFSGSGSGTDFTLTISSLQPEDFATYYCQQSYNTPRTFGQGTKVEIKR
[2]
  neutralization EC50: 0.13 µg/mL
  neutralization EC90: 8.18 µg/mL
[3]
  neutralization EC50: > 100 µg/mL
  neutralization EC90: > 100 µg/mL
[4]
  neutralization EC50: 0.045 µg/mL
  neutralization EC90: 4.84 µg/mL
[5]
  neutralization EC50: 0.12 µg/mL
  neutralization EC90: 25.2 µg/mL

B3: EBB-C1975-E7 (antibody, human IgG1, kappa, V domains shown)
VH: B2 VH with V5L, T7S, Q13R, L20V, R30S, S53G, S56R, D61E, S79F, V92L
VL: DIQVTQSPSSLSASVGDRVTITCRASQSISSYLNWYQQEPGKAPKLLIYAASTLQTGVPSRFSGSGSGTDFTLTISSLQPEDFATYYCQQSYNTPRTFGQGTKVEIKR
[2]
  neutralization EC50: 0.35 µg/mL
  neutralization EC90: 8.61 µg/mL
[3]
  neutralization EC50: > 100 µg/mL
  neutralization EC90: > 100 µg/mL
[4]
  neutralization EC50: 0.01 µg/mL
  neutralization EC90: 2.62 µg/mL
[5]
  neutralization EC50: 0.33 µg/mL
  neutralization EC90: 9.61 µg/mL

B4: NEG447 (antibody, human IgG1, lambda, V domains shown)
VH: QVQLQESGPGLVKPSETLSLTCTVSGGSISRDYWSWVRQPPGAGLEWIGNIYYSGSTNYNPSLKSRVTISVATNKKQFSLKLTSVTAADTAVYYCARVPGCSSTSCIDGWFDPWGQGILVTVSS
VL: QSVLTQPPSLSAAPGQKVTISCSGSSSNIGNTYVSWYQQLPGTAPKLLIYDNNKRPSGIPDRFSGSKSGTSATLGITGLQTGDEAVYYCGTWDSSLSAWVFGGGTRLTVLG
[6]
  neutralization EC50: 0.012 µg/mL
  neutralization EC90: 0.34 µg/mL
[7]
  neutralization EC50: > 100 µg/mL
  neutralization EC90: > 100 µg/mL
[8]
  neutralization EC50: > 100 µg/mL
  neutralization EC90: > 100 µg/mL
[9]
  neutralization EC50: 0.004 µg/mL
  neutralization EC90: 0.27 µg/mL
[10]
  neutralization EC50: 0.024 µg/mL
  neutralization EC90: 6.72 µg/mL

B5: P7G11A (antibody, human IgG1, lambda, V domains shown)
VH: QVQLQESGPGLVKPSQTLSLTCTVSGGSISSGGYSWSWIRQPPGKGLEYIGYIYYRGTTYYNPSLKSRVTISVDTSNNQISLKLSSVTAADTAVYYCARALTHLVGVGWFDPWGQGTMVTVSS
VL: B4 VL with L10V, S25G, I29L, N31S, T32N, V86D, S94G, R106K, L107V
[6]
  neutralization EC50: 0.015 µg/mL
  neutralization EC90: 0.53 µg/mL
[7]
  neutralization EC50: > 100 µg/mL
  neutralization EC90: > 100 µg/mL
[8]
  neutralization EC50: > 100 µg/mL
  neutralization EC90: > 100 µg/mL
[9]
  neutralization EC50: 0.0008 µg/mL
  neutralization EC90: 0.34 µg/mL
[10]
  neutralization EC50: 0.074 µg/mL
  neutralization EC90: 2.89 µg/mL

B6: P165E2 (antibody, human IgG1, lambda, V domains shown)
VH: B4 VH with S35T, A43E, T73A, N74S
VL: B4 VL with K17R, D61G, V86A
[6]
  neutralization EC50: 0.012 µg/mL
  neutralization EC90: 0.46 µg/mL
[7]
  neutralization EC50: > 100 µg/mL
  neutralization EC90: > 100 µg/mL
[8]
  neutralization EC50: > 100 µg/mL
  neutralization EC90: > 100 µg/mL
[9]
  neutralization EC50: 0.009 µg/mL
  neutralization EC90: 0.37 µg/mL
[10]
  neutralization EC50: 0.081 µg/mL
  neutralization EC90: 7.98 µg/mL

B7: P7G11 (antibody, human IgG1, lambda, V domains shown)
VH: B5 VH with V12A, T23S, V69I, I71M, S85T
VL: B4 VL with L10V, S25G, I29L, N31S, T32N, V86D, S94G, R106K, L107V
[6]
  neutralization EC50: 0.011 µg/mL
  neutralization EC90: 0.48 µg/mL
[7]
  neutralization EC50: > 100 µg/mL
  neutralization EC90: > 100 µg/mL
[8]
  neutralization EC50: > 100 µg/mL
  neutralization EC90: > 100 µg/mL
[9]
  neutralization EC50: 0.007 µg/mL
  neutralization EC90: 0.37 µg/mL
[10]
  neutralization EC50: 0.187 µg/mL
  neutralization EC90: 1.79 µg/mL

B8: 2081-66-5 (antibody, V domains shown)
VH: QVQLQQSGPELVKPGASVRISCKVSGFTFSNSWMNWVKQRPGQGLEWIGRIYPGDGDTQYNEKFKGKATLTADTSSNTAYIQLNSLTSVDSAVFFCARSRSGLDYWGQGTTLTVSS
VL: DIQMTQSTSSLSASLGDRVTISCRASQDIYNYLNWFQQKPDGTVKPLIYSTSRLHSGVSSRFSGSGSGTDYSLTISNLEREDIATYFCHQSHTVPFTFGSGTKLEIK
[1]
  neutralization EC50: 0.041 µg/mL
  neutralization EC90: 0.601 µg/mL
